According to patent publication US20250145716A1 (RAKUTEN MEDICAL, published 2025):

How the values were obtained:
[1] = biological target: T1, human PD-L1 expressed on cells (human, UniProt Q9NZQ7 19-290); assay: cell-based or functional assay
[2] = biological target: T2, 6xHis-tagged huPD-L1 (human, UniProt Q9NZQ7 19-238); assay: ELISA, plate-coated 6xHis huPD-L1, OD 450 nm
T2 construct: also called human PD-L1 (RD Systems 9049-B7); extracellular domain of human PD-L1 fused to a His tag; not shown: 6xHis tag
T2 sequence (Q9NZQ7 19-238): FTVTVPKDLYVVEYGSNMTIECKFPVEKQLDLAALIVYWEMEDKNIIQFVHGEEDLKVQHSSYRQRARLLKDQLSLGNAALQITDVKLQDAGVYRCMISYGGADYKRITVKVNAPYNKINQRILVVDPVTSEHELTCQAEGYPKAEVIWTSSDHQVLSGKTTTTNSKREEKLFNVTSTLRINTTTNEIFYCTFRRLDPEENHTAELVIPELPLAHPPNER
Method: (§1) Hybridoma supernatants were tested for binding to huPD-L1, cyPD-L1, and muPD-L1 by ELISA. Briefly, 30 μL 6xHis-tagged huPD-L1, cyPD-L1, or muPD-L1 (1 μg/mL in PBS) were immobilized in wells of a 96-well assay plate overnight at 4° C. After washing and blocking steps, 30 μL of antibody supernatant were added to the plate and incubated at room temperature for 1 hr. Bound human antibody was detected using horseradish peroxidase (HRP)-conjugated goat anti-human Fc (Invitrogen Cat. No. 109-035-097; diluted 1:5000) or goat anti-mouse Fc HRP (Invitrogen Cat. No. 115-035-071) as a control. Bound antibody was detected with 1-Step Ultra™ TMB-ELISA Substrate (ThermoFisher Scientific Cat. No. 34029). When the reaction was complete the reaction was stopped, and the plate was read at 450 nm.
(§2) Anti-PD-L1 antibodies, described in Example 1A and manufactured substantially as described in Example 1B, were tested for to huPD-L1 and cyPD-L1 by ELISA substantially as described in Example 1A, using 12 dilutions of antibody ranging from 1 ng/ml to 3 mg/mL.

[3] = biological target: T3, 6xHis-tagged cyPD-L1 (cynomolgus monkey, UniProt Q9NZQ7 19-238 (human entry)); assay: ELISA, plate-coated 6xHis cyPD-L1, OD 450 nm
T3 construct: The assay text says only '6xHis-tagged cyPD-L1'; also called cynomolgus PD-L1; not shown: 6xHis tag
T3 sequence (Q9NZQ7 other isoform, or with tags, fused parts or gaps): as the sequence (Q9NZQ7 19-238) above, with A33T, A34S, S62N, R68Q, Q82R, F173L, T185A, T192I, H215L counted along it
Method: as §1, §2

[4] = biological target: T1, human PD-L1 expressed on cells; assay: flow cytometry on unstimulated A431 cells, ratio of EC50 values
Method: (§3) Approximately 2.5×10⁵ A431 squamous cell carcinoma cells were plated in a final volume of 50 μL FACS buffer (phosphate buffered saline, 1% fetal bovine serum, 5 mM EDTA) in 96-well plates. 50 μL 2× Zombie Violet (BioLegend) were added to each well, and the plates were incubated 20-30 minutes at room temperature, protected from light. After incubation, 150 μL FACS buffer were added to each well. The plates were centrifuged at 500×g for 5 minutes. The supernatant was removed, and the cell pellet were resuspended in 200 μL FACS buffer. The wash procedure was repeated for a total of 2-3 washes. […] After the cells were incubated with the primary anti-PD-L1 antibody 1 hour on ice, protected from light, 150 μL FACS buffer were added to each well. The plates were then centrifuged, the supernatant was removed, and the cells were resuspended in 250 μL FACS buffer three times. After the third wash, the cells were resuspended in 100 μL goat anti-human IgG-Alexa Fluor 488 secondary antibody, and incubated for 30 minutes on ice, protected from light. After 3 washes as previously described, the cells were resuspended in 200 μL FACS buffer. The cells were then analyzed using a CytoFLEX flow cytometer.

[5] = biological target: T1, human PD-L1 expressed on cells; assay: flow cytometry on unstimulated A431 cells (MFI against antibody concentration)
Method: as §3

[6] = biological target: T4, PD-L1-His (Acro Cat PDL-H5229) (human, UniProt Q9NZQ7 19-238); assay: SPR (Biacore 4000), antibody captured on anti-human CM4 chip, PD-L1-His analyte, 25° C.
T4 construct: also called human PD-L1 (SPR analyte); not shown: His tag
T4 sequence (Q9NZQ7 19-238 limits assumed): as the sequence (Q9NZQ7 19-238) above
Method: The binding affinities of the generated antibodies to human PD-L1 were determined by surface plasmon resonance. […] PD-L1-His (Acro Cat PDL-H5229) was tested for binding in a 3-fold titration series up to 100 nM. Data were collected in HBS-P (pH 7.4) at 37° C. and 25° C.

[7] = biological target: T2, 6xHis-tagged huPD-L1; assay: ELISA, plate-coated human PD-L1 (1 µg/mL), OD 450 nm, B7 ligand specificity panel
Method: as §1
(§4) Briefly, wells of a 96-well plate (Corning 3690) were incubated with 30 μL human PD-L1 (RD Systems 9049-B7), human PD-L2 (RD Systems 9075-PL), human B7-1/CD80 (RD Systems 9050-B1), human B7-2/CD86 (RD Systems 9090-B2), human B7-H2 (RD Systems 8206-B7), or human B7-H3 (RD Systems 1949-B3), at a concentration of 1 μg/mL in PBS, overnight at 4C, to coat the wells with ligand. After washing and blocking steps, 30 μL of antibody at 8 concentrations ranging from 1 ng/mL to 3 mg/mL were added to the plate and incubated at room temperature for 1 hr. Bound human antibody was detected as described above.

[8] = biological target: T5, human B7-1/CD80 (RD Systems 9050-B1) (human, UniProt P33681 35-242); assay: ELISA, plate-coated human B7-1/CD80 (1 µg/mL), OD 450 nm, B7 ligand specificity panel
T5 sequence (looked up): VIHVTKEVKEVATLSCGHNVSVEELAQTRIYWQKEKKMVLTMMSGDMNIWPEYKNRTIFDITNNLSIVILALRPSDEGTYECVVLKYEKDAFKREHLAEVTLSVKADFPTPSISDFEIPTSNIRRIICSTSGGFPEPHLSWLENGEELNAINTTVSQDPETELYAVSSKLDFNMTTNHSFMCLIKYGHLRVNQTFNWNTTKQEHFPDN
Method: as §1, §4

[9] = biological target: T6, human B7-2/CD86 (RD Systems 9090-B2) (human, UniProt P42081 24-247, limits assumed); assay: ELISA, plate-coated human B7-2/CD86 (1 µg/mL), OD 450 nm, B7 ligand specificity panel
T6 sequence (looked up): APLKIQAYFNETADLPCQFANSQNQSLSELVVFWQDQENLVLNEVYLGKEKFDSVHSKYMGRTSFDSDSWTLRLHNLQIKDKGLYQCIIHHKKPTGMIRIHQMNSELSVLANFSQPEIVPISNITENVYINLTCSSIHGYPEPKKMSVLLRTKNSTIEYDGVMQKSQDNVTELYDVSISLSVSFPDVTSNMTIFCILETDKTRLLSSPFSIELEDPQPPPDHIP
Method: as §1, §4

T1 sequence (Q9NZQ7 19-290): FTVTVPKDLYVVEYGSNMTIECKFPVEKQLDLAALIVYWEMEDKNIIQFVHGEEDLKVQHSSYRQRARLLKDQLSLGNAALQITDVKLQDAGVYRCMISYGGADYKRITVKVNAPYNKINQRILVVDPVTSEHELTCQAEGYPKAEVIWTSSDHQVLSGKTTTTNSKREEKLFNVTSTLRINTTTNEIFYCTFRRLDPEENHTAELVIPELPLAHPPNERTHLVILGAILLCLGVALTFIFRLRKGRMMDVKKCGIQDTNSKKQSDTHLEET

B1: 1P9 (antibody, V domains shown)
VH: EVQLVESGGGLVQPGGSLRLSCAASGFTFSTYWMSWVRQAPGKGLEWVANIKQDGGERYYVDSVKGRFTISRDNAKSSLYLQMNSLRAEDTALYYCARLRLYSDYEDYWGQGTLVTVSS
VL: DIQMTQSPSSVSASVGDRVTITCRASQGISSWLAWYQQKPGKAPKLLIYSVSSLQSGVPSRFSGSGSGTDFTLTISSLQPEDSATYYCQQANSLPPTFGGGTKVEIK
notes: Recombinant full-length human antibody expressed in CHO K1 GS KO cells, with wild-type human Fc; also called anti-PD-L1 antibody 1P9; Unconj; 1P9
Question: What does the source list for B1?
Answer: EC50 of luminescence (RLU), PD-1:PD-L1 Blockade Bioassay (PD-L1 aAPC/CHO-K1 cells with PD-1 Effector Jurkat NFAT-luciferase cells) [1]: 0.067 µg/mL; EC50 [2]: 0.0359 µg/mL; EC50 [3]: 0.0338 µg/mL; fold potency against avelumab [4]: 3.5 fold; EC50 [5]: 0.0159 µg/mL; Kd [6]: 0.27 nM; koff [6]: 5.1e-05 s⁻¹; kon [6]: 190000 M⁻¹ s⁻¹; EC50 [7]: 0.0953 µg/mL; EC50 [8]: 5.31 µg/mL; EC50 [9]: 1.14 µg/mL
